Data: the Immune Epitope Database (IEDB)

Legend:
HLA-A*01:01 = assay: IEDB peptide-MHC binding, purified MHC/direct/fluorescence; filed as Kd, often an IC50 or EC50 that approximates it; ≥ and ≤ were set here for values at or beyond the usual limits of such assays; conditions: source organism: Yersinia pestis
HLA-A*69:01 = assay: as above
HLA-A*02:01 [1] = assay: IEDB peptide-MHC binding, purified MHC/competitive/fluorescence; ≥ and ≤ were set here for values at or beyond the usual limits of such assays
HLA-A*30:01 = assay: IEDB peptide-MHC binding, purified MHC/competitive/radioactivity; filed as Kd, often an IC50 or EC50 that approximates it; ≥ and ≤ were set here for values at or beyond the usual limits of such assays
HLA-A*26:01 [2] = assay: as above
HLA-A*02:01 [3] = assay: IEDB peptide-MHC binding, purified MHC/direct/fluorescence; filed as Kd, often an IC50 or EC50 that approximates it; ≥ and ≤ were set here for values at or beyond the usual limits of such assays
HLA-A*26:01 [4] = assay: as above; conditions: source organism: Mycobacterium tuberculosis
HLA-A*02:01 [5] = assay: IEDB peptide-MHC binding, purified MHC/competitive/fluorescence; filed as Kd, often an IC50 or EC50 that approximates it; ≥ and ≤ were set here for values at or beyond the usual limits of such assays
HLA-A*30:02 = assay: IEDB peptide-MHC binding, purified MHC/competitive/radioactivity; filed as Kd, often an IC50 or EC50 that approximates it; ≥ and ≤ were set here for values at or beyond the usual limits of such assays
HLA-A*03:01 [6] = assay: IEDB peptide-MHC binding, purified MHC/direct/fluorescence; filed as Kd, often an IC50 or EC50 that approximates it; ≥ and ≤ were set here for values at or beyond the usual limits of such assays
HLA-B*07:02 = assay: as above; conditions: source organism: Human immunodeficiency virus type 1 (STRAIN UGANDAN / ISOLATE U455)
HLA-B*15:01 = assay: as above
HLA-A*24:02 = assay: IEDB peptide-MHC binding, purified MHC/competitive/radioactivity; filed as Kd, often an IC50 or EC50 that approximates it; ≥ and ≤ were set here for values at or beyond the usual limits of such assays; conditions: source organism: Dengue virus 3 Martinique/1243/1999
HLA-B*58:01 = assay: IEDB peptide-MHC binding, purified MHC/direct/fluorescence; filed as Kd, often an IC50 or EC50 that approximates it; ≥ and ≤ were set here for values at or beyond the usual limits of such assays
HLA-B*27:05 = assay: as above; conditions: source organism: SARS-CoV1
HLA-A*11:01 = assay: as above; conditions: source organism: SARS-CoV1
HLA-A*03:01 [7] = assay: IEDB peptide-MHC binding, purified MHC/competitive/radioactivity; filed as Kd, often an IC50 or EC50 that approximates it; ≥ and ≤ were set here for values at or beyond the usual limits of such assays; conditions: source organism: Dengue virus 1 Brazil/97-11/1997
HLA-B*40:01 = assay: IEDB peptide-MHC binding, purified MHC/direct/fluorescence; filed as Kd, often an IC50 or EC50 that approximates it; ≥ and ≤ were set here for values at or beyond the usual limits of such assays; conditions: source organism: Mycobacterium tuberculosis
[8] = source organism: Zaire ebolavirus
[9] = source organism: Dengue virus 2 Jamaica/1409/1983
[10] = source organism: Dengue virus 3 Martinique/1243/1999
[11] = source organism: Mycobacterium tuberculosis variant bovis
[12] = source organism: Sudan ebolavirus
[13] = source organism: Yersinia pestis
[14] = source organism: Francisella tularensis subsp. holarctica LVS
[15] = source organism: Mammarenavirus guanaritoense
[16] = source organism: Dengue virus 1 Brazil/97-11/1997
[17] = source organism: Vaccinia virus WR
[18] = source organism: Vaccinia virus Copenhagen
[19] = source organism: Shigella boydii
[20] = source organism: Dengue virus 4 Philippines/H241/1956
[21] = source organism: Vaccinia virus
[22] = source organism: Bacillus anthracis
[23] = source organism: Human immunodeficiency virus 1

Sequence AINGFVLPK has a Kd (HLA-A*01:01) of at least 20 µM.

AMLHWSLIL gave a Kd (HLA-A*69:01; source organism: Yellow fever virus 17D) of at least 20 µM.

In the case of AMVQVHSQG, the IC50 (HLA-A*02:01 [1]; [8]) is reported as at least 102 µM.

Sequence DEAHFTDPAS has a Kd (HLA-A*30:01; [9]) of 13.9 µM.

DTGEESASS showed an IC50 (HLA-A*02:01 [1]; [8]) of at least 425 µM.

EIPLQWIASA showed a Kd (HLA-A*26:01 [2]; [10]) of 2.62 µM.

With ELRGLLKDV the Kd (HLA-A*02:01 [3]; [11]) was at least 20 µM and the Kd (HLA-A*69:01; [11]) was 13 µM.

Sequence ETLQRKYGGA has a Kd (HLA-A*26:01 [2]; [9]) of 0.311 µM.

Sequence EVSARIAAL has a Kd (HLA-A*26:01 [4]) of 0.0124 µM.

EVSTAIAAL gave a Kd (HLA-A*26:01 [4]) of 0.0122 µM.

Sequence FIDNPLPNQ has an IC50 (HLA-A*02:01 [1]; [12]) of 28.1 µM.

Work on FIPENQRTV yielded an IC50 (HLA-A*02:01 [1]; source organism: Human alphaherpesvirus 1 strain 17) of 4.22 µM.

With FLEQGGFKA the Kd (HLA-A*02:01 [3]; [13]) was 0.0643 µM and the Kd (HLA-A*69:01; [13]) was 1.99 µM.

FLHEDTEKI showed a Kd (HLA-A*02:01 [5]; source organism: unidentified) of 0.02 µM.

In the case of FLIDLAFLI, the Kd (HLA-A*02:01 [3]; source organism: Camelpox virus M-96) is reported as 0.003 µM.

FSTLDKITD showed an IC50 (HLA-A*02:01 [1]; source organism: Variola virus) of 53.6 µM.

Sequence FSYGTLIID has an IC50 (HLA-A*02:01 [1]; source organism: Variola virus) of at least 283 µM.

FTLDADLGI was tested, and the Kd (HLA-A*02:01 [3]; [14]) was 0.0082 µM and the Kd (HLA-A*69:01; [14]) was 0.0022 µM.

With FVTLITGNM the Kd (HLA-A*26:01 [2]; [9]) was 1.39 µM.

With GHHTNFESF the Kd (HLA-A*30:02; [15]) was 3.83 µM and the Kd (HLA-A*26:01 [2]; [15]) was at least 77.9 µM.

With GLGSFVARK the Kd (HLA-A*03:01 [6]; source organism: Escherichia coli) was 0.209 µM.

With GLPPGTPAV the Kd (HLA-A*02:01 [3]; source organism: Mycobacterium tuberculosis) was 0.0278 µM.

Sequence GRLITANPIV has a Kd (HLA-A*30:01; [16]) of at least 57.1 µM.

For GSRVRNIIA, the Kd (HLA-A*30:01; [17]) was 0.00885 µM.

GVFPVSIPIT was tested, and the Kd (HLA-A*30:01; [9]) was 7.36 µM.

For HAVYSIVFV, the Kd (HLA-A*30:01; [17]) was 0.591 µM.

HIFYQLANV gave a Kd (HLA-A*30:01; [17]) of 0.0604 µM.

HKIMASENS gave an IC50 (HLA-A*02:01 [1]; [8]) of at least 253 µM.

For HLSNSFFIK, the Kd (HLA-A*30:01; [17]) was 0.0173 µM.

Work on HPDIVIYQY yielded a Kd (HLA-B*07:02) of 13 µM and a Kd (HLA-B*15:01; source organism: Human immunodeficiency virus type 1 (STRAIN UGANDAN / ISOLATE U455)) of 1.51 µM.

With HVYDFEPYY the Kd (HLA-A*30:01; [17]) was 0.0274 µM.

Sequence IIKSPYMFA has a Kd (HLA-A*30:01; [18]) of 0.00642 µM.

IPLGVIHNS showed an IC50 (HLA-A*02:01 [1]; [8]) of at least 185 µM.

Work on ITEAELTGY yielded a Kd (HLA-A*30:02; [9]) of 0.00947 µM and a Kd (HLA-A*26:01 [2]; [9]) of 8.27 µM.

KAELEEGVY showed a Kd (HLA-A*30:02; [10]) of at least 52.8 µM.

Work on KHGEYAPFA yielded an IC50 (HLA-A*02:01 [1]; [8]) of 28.3 µM.

KHMIAGVFF was tested, and the Kd (HLA-A*24:02) was 0.837 µM.

For KLPRWIFFA, the Kd (HLA-A*02:01 [3]; [19]) was 0.0015 µM and the Kd (HLA-A*69:01; [19]) was 0.951 µM.

Sequence KMKELSPRW has a Kd (HLA-A*03:01 [6]; source organism: SARS-CoV1) of 5.75 µM, a Kd (HLA-B*58:01; source organism: SARS-CoV1) of 0.42 µM and a Kd (HLA-B*27:05) of 5.25 µM. It also gave a Kd (HLA-B*15:01; source organism: SARS-CoV1) of 1.2 µM and a Kd (HLA-A*11:01) of at least 30.2 µM.

With KQKMGPIYA the Kd (HLA-A*30:01; [17]) was 0.0217 µM.

KQSQSYLTK was tested, and the Kd (HLA-A*30:01; [17]) was 0.158 µM.

In the case of KSLYSHQLV, the Kd (HLA-A*30:01; [17]) is reported as 0.0123 µM.

KVMFVIRFK gave a Kd (HLA-A*30:01; [17]) of 0.000597 µM.

KVSPPSLGK gave a Kd (HLA-A*30:01; [17]) of 0.00112 µM.

In the case of LARWSSFKK, the Kd (HLA-A*03:01 [7]) is reported as 0.171 µM and the Kd (HLA-A*30:01; [16]) is reported as 0.00679 µM.

LEYDGFADF showed a Kd (HLA-B*40:01) of 0.0424 µM.

LFVVTLIPLC showed a Kd (HLA-A*30:01; [20]) of 0.414 µM.

LLSQYVDDA showed an IC50 (HLA-A*02:01 [1]; [21]) of 23.3 µM.

Sequence LLYKQLNFT has a Kd (HLA-A*02:01 [3]; [22]) of 1.18 µM and a Kd (HLA-A*69:01; [22]) of at least 20.6 µM.

With LSNGMLRFA the IC50 (HLA-A*02:01 [1]; [21]) was 5.56 µM.

MNAPDDLVL showed an IC50 (HLA-A*02:01 [1]; [8]) of at least 162 µM.

For MTSLSAVSV, the Kd (HLA-A*30:01; [17]) was 0.887 µM.

NANPDCKTI showed a Kd (HLA-B*58:01; [23]) of 9.31 µM and a Kd (HLA-A*69:01; [23]) of 7.64 µM.

NASQHPQQV showed a Kd (HLA-A*69:01; source organism: Salmonella enterica subsp. enterica serovar Typhimurium) of 0.571 µM.

NLHYWTAQE was tested, and the IC50 (HLA-A*02:01 [1]; [12]) was at least 189 µM.

Work on NLWNGIVPT yielded a Kd (HLA-A*02:01 [5]; [18]) of 0.0002 µM.

For NQDGLICGL, the IC50 (HLA-A*02:01 [1]; [8]) was 28.4 µM.

In the case of NQRETTVVW, the Kd (HLA-B*15:01; source organism: Pseudomonas aeruginosa) is reported as 0.133 µM.

QKATLTEGVY was tested, and the Kd (HLA-A*30:02; [20]) was 0.0156 µM.

QLSDHPMVK gave a Kd (HLA-A*03:01 [6]; source organism: Vibrio parahaemolyticus) of 0.146 µM.

With RFLTIPPTA the Kd (HLA-A*30:01; [9]) was 0.0605 µM.

RIRQGKFIK was tested, and the Kd (HLA-A*30:01; [17]) was 0.00479 µM.
